The target in this test is ovalbumin-hippuric acid conjugate (OVA-HA) (UniProt P01012). Put plainly: indirect ELISA on hippuric acid antigen, purified soluble scFv-E tag at 10-fold dilution, rabbit anti-E tag and goat anti-rabbit IgG-HRP detection. Background: ELISA stands for enzyme-linked immunosorbent assay.

From patent US20090227777A1 come the findings set out here.

Sequence of UniProt P01012 (P01012 2-386 limits assumed): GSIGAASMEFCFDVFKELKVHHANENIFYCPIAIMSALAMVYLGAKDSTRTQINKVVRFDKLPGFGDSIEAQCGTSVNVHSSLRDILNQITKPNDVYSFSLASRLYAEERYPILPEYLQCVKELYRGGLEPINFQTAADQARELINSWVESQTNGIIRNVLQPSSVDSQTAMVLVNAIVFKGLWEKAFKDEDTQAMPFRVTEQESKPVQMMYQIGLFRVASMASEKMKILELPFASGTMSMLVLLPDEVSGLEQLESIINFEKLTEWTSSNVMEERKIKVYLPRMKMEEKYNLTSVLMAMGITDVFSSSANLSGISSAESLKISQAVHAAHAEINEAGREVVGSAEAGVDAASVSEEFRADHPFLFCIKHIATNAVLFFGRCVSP

B1: soluble single chain variable fragment scFv-E tag derived from 4D31G111B7 (scFv)
scFv: AAQPAEVMLVESGASVKISCKASGYSFTGYYMHWVKQSHVKTLEWVGRITPYNGATNYNQNFKDKASLTVDKSSSTAYMEFHSLTSEDSAVYYCVRMYADVWGAGTSVTVSSVKTTPPSVYPLAPGGGGSGGGGSGGGGSEIVLTQSPSSLSASLGESVTLACRGASQDIGGRLNWLQQEADGTIKRLIYATSSLDSGVPKRFSGSRSGSDYSLTISSLESEDFVDYYCLQYDRSPYTFGGGTKLEIKRGDAAPTVAA
As to B1, the antibody titer was determined as 0.516.
